How the values were obtained:
[1] = molecular target: T1, human Siglec-7 expressed on human cells (primary monocytes, dendritic cells, macrophages, NK cells, … (human, UniProt Q9Y286 19-467)); assay: cell-based or functional assay
[2] = molecular target: T1, human Siglec-7 expressed on human cells …; assay: cell-based or functional assay; remark: listed apart in the source
[3] = molecular target: T1, human Siglec-7 expressed on human cells …; assay: FACS, human primary monocytes, 10 ug/ml mAb
[4] = molecular target: T1, human Siglec-7 expressed on human cells …; assay: FACS, human primary macrophages, 10 ug/ml mAb
[5] = molecular target: T1, human Siglec-7 expressed on human cells …; assay: FACS, human primary dendritic cells, 10 ug/ml mAb
[6] = molecular target: T2, Histidine-tagged human Siglec-7 (NovoProtein) (human, UniProt Q9Y286 19-357, limits assumed); assay: SPR (BiaCore T200, 25 C), antibody captured on anti-mouse IgG, Siglec-7-His 50 nM, single-concentration kinetics
T2 construct: Bought protein; also called purified Siglec-7-his tagged protein; not shown: histidine tag
Procedure: (§1) SPR data was collected at a rate of 10 Hz at 25′ C on a BiaCore T200 instrument. Data analysis was performed using BiaCore T200 Evaluation Software, version 2.0. HBS-EP+ (100 mM HEPES, 1.5 M NaCl, 30 mM EDTA, 0.5% v/v Surfactant P20, pH 7.4) was used as running buffer and for preparing reagents.
(§2) Mouse-derived antibodies (25 nM) against Siglec-7 were captured (60 s contact time, 30 μL/min flow rate, 0 s stabilization time) on a CM5 sensor chip (GE Healthcare) immobilized with anti-mouse IgG. Histidine-tagged human Siglec-7 (NovoProtein) was then flowed over the captured anti-Siglec-7 surface (120 s contact time, 30 μL/min flow rate, 300 s dissociation time). Concentration of antigen ranged from 5 nM to 100 nM, depending on information obtained from an initial screen. Duplicate single-concentration trials were performed and bracketed by a blank (0 nM antigen) sample. The chip surface was regenerated in between cycles using 10 mM glycine-HCl, pH1.7 (60 s contact time, 30 μL/min flow rate, 60 s stabilization time). The resulting SPR signal was obtained as the difference in response from measurements performed on a blank flow cell.
(§3) Affinity constants (KD) were calculated from the ratio kd/kₐ. For one antibody (clone 1E8), we validated the single-concentration analysis with a multiple-concentration approach (five concentrations of antigen used, plus one blank).

[7] = molecular target: T3, Siglec-7-Fc (plate immobilized) (human, UniProt Q9Y286 19-357, limits assumed); assay: RBC solid adhesion assay, plate-coated Siglec-7-Fc, antibody 0.5 or 1.0 ug/ml; % of RBC binding without antibody
T3 construct: also called Siglec-7-Fc protein; immobilized Siglec-7; not shown: Fc part
In short: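 Plates coated overnight at RT with 5 μg/ml Siglec-7-Fc and blocked in PBS with BSA and 1 mM CaCl₂. Antibody (0.5 or 1.0 μg/ml) bound 1 h at RT, then RBCs (3.0×10⁶ cells/ml) added for 1 h at RT. Bound RBCs lysed and detected by peroxidase at 450 nm, expressed as % of binding without antibody.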

[8] = molecular target: T2, Histidine-tagged human Siglec-7 …; assay: SPR (BiaCore T200, 25 C), antibody captured on anti-mouse IgG, Siglec-7-His 5 nM, single-concentration kinetics
Procedure: as §1, §2, §3

[9] = molecular target: T2, Histidine-tagged human Siglec-7 …; assay: SPR (Biacore T200), antibody captured on anti-mouse IgG, 5 nM Siglec-7-his flowed over, single-concentration 1:1 fit, 25 C
Procedure: as §1, §2, §3

[10] = molecular target: T2, Histidine-tagged human Siglec-7 …; assay: SPR (BiaCore T200, 25 C), antibody captured on anti-mouse IgG, Siglec-7-His 10 nM, single-concentration kinetics
Procedure: as §1, §2, §3

T1 sequence (Q9Y286 19-467): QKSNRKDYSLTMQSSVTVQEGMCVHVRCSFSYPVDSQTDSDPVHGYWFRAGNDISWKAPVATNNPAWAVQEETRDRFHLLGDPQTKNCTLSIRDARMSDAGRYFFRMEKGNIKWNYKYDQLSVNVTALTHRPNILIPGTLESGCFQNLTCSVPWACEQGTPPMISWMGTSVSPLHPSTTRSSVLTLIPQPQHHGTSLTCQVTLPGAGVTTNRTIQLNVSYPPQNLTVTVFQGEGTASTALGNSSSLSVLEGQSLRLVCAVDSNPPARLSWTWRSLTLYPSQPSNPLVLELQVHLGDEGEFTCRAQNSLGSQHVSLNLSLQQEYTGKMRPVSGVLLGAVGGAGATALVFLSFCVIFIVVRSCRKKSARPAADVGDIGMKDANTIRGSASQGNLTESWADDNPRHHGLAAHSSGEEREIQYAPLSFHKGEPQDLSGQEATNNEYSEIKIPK
T3 sequence (Q9Y286 19-357 limits assumed): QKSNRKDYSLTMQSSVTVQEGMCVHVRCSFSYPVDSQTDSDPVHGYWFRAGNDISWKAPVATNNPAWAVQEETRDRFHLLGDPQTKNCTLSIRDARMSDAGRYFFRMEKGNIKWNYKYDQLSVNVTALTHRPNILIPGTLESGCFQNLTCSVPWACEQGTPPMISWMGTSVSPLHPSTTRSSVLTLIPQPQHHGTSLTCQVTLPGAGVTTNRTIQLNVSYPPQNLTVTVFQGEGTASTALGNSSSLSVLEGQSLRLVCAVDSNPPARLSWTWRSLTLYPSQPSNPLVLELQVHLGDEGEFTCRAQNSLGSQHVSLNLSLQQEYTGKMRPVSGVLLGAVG
T2 sequence (Q9Y286 19-357 limits assumed): as above

B1: anti-Siglec-7 antibody 2G4 (antibody, V domains shown)
VH: QVQLQQSGSELRSPGSSVKLSCKDFDSEVFPITYMNWVRQKPGHGFEWIGDILPSIGRTMYGEKFEDKATLDADTVSNTAYLELNSLTSEDSAIYYCARSEGYLLAYWGQGTLVTVSA
VL: DIQMTQSLSYLSVSLGGRVTITCKASDHINNWLAWYQQKPGNAPRLLISGATSLETGFPSRFSGSGSGKDYTLSITSLQTEDVATYYCHQYWNTPYTFGGGTRLEIK
notes: Variable domains assembled from FR and CDR entries
Percent Siglec-7 Surface Expression, DCs [1]: 98.1% | Percent Siglec-7 Surface Expression, Monocytes [1]: 29.3% | Percent Siglec-7 Surface Expression, U937 cells [1]: 84.6% | Percent Siglec-7 Surface Expression, Macrophages [2]: 14.1% | Percent Siglec-7 Surface Expression, Microglia [2]: 23% | Percent Siglec-7 Surface Expression, NK cells [2]: 126% | % Positive [3]: 99.3% | MFI [3]: 512 | % Positive [4]: 99.5% | MFI [4]: 15500 | % Positive [5]: 99.7% | MFI [5]: 5750 | Kd [6]: 0.4 nM | Percent RBC Binding to Siglec-7 [7]: 11.6%

B2: anti-Siglec-7 antibody 1E8 (antibody, V domains shown)
VH: QVQLQQSGAELVRPGASVKLSCSASGFNIKGSLLHWIKQRPLQGLEWIGWIDPEDGETRFDPKFQDKAFLTADTSSTTAYLQLSSLTSEDTAIYYCARTEYSNPAWFAYWGQGTLVTVSA
VL: DIQMTQFPATLSVTPGDRVSLSCRASQSISDYLHWYQHKSHESPRLLIKYASQSISGIPSRFSGSGSGWDFTLSINSVEPEDVGIYYCQKGLNFPLTFGGGTKLEMK
Percent Siglec-7 Surface Expression, DCs [1]: 23% | Percent Siglec-7 Surface Expression, Monocytes [1]: 36.7% | Percent Siglec-7 Surface Expression, U937 cells [1]: 114% | Percent Siglec-7 Surface Expression, Macrophages [2]: 9.1% | Percent Siglec-7 Surface Expression, Microglia [2]: 41.3% | Percent Siglec-7 Surface Expression, NK cells [2]: 144% | % Positive [3]: 99.3% | MFI [3]: 428 | % Positive [4]: 99.5% | MFI [4]: 5450 | % Positive [5]: 99.7% | MFI [5]: 2940 | Kd [8]: 0.017 nM | Percent RBC Binding to Siglec-7 [7]: 16.4% | Kd [9]: 0.017 nM

B3: anti-Siglec-7 antibody 10G8 (antibody, V domains shown)
VH: EVKLVEFGGALVKPGGSLKLSCAALGFTFSTYAMFRVRQTPEKREEGVASISSGGRYTYYPDSAKDRHPIFRDNARNTLYLQMSSLRSKDTAMYYCVRHSYGSSYWYLDVWGAGTTVTVSS
VL: DIQMTQFPATLSGTPGDRVZLSRRASQSIREYLHWYQQKSHESPRLZIKFASQSICGIPSRFSGSGSGSDFTLSINTVEPEDVGVYYCQKAHNFPYTFGGGTKLEIK
notes: as for B1
Percent Siglec-7 Surface Expression, DCs [1]: 10.5% | Percent Siglec-7 Surface Expression, Monocytes [1]: 30.9% | Percent Siglec-7 Surface Expression, U937 cells [1]: 83.8% | Percent Siglec-7 Surface Expression, Macrophages [2]: 9.2% | Percent Siglec-7 Surface Expression, NK cells [2]: 74.7% | % Positive [3]: 99.1% | MFI [3]: 523 | % Positive [4]: 99.7% | MFI [4]: 3280 | % Positive [5]: 99.5% | MFI [5]: 897 | Kd [10]: 0.6 nM | Percent RBC Binding to Siglec-7 [7]: 111%
